Measured values taken from patent publication US20110091994A1, “Methods for Screening Compounds for Treating and/or Preventing an Hepatitis C Virus Infection” (priority 2008, published 2011).
Where two headings read alike, the source gives them in different places.

B1: CCDC52 (protein, UniProt Q8N0Z3 1-855, looked up)
Spindle and …: MSFVRVNRCGPRVGVRKTPKVKKKKTSVKQEWDNTVTDLTVHRATPEDLVRRHEIHKSKNRALVHWELQEKALKRKWRKQKPETLNLEKRRLSIMKEILSDQYQMQDVLEKSDHLIAAAKELFPRRRTGFPNVTVAPDSSQGPIVVNQDPITQSIFNESVIEPQALNDVDGEEEGTVNSQSGESENENELDNSLNSQSNTNTDRFLQQLTEENFELISKLWTDIQQKIATQSQITPPGTPSSALSSGEQRAALNATNAVKRLQTRLQPEESTETLDSSYVVGHVLNSRKQKQLLNKVKRKPNLHALSKPKKNISSGSTTSADLPNRTNSNLDVLKHMIHEVEHEMEEYERWTGREVKGLQSSQGLTGFTLSLVSSLCRLVRYLKESEIQLRKEVETRQQLEQVLGDHRELIDALTAEILRLREENAATQARLQQYMVTTDEQLISLTHAIKNCPVINNRQEIQASESGATGRRVMDSPERPVVNANVSVPLMFREEVAEFPQEELPVKLSQVPDPPDNMNLAKNFPAHIFEPAVLLTPPRQKSNLKFSPLQDVLRRTVQTRPAPRLPPTVEIIEKEQNWEEKTLPIDTDIQNSSEENRLFTQRWRVSHMGEDLENKTQAPFVNLSQPLCNSHSNTQQSRSPTFSEELPVLGDGQQLRTNESLIQRKDIMTRIADLTLQNSAIKAHMNNIIEPRGEQGDGLRELNKQESASDMTSTFPVAQSLTPGSMEERIAELNRQSMEARGKLLQLIEQQKLVGLNLSPPMSPVQLPLRAWTEGAKRTIEVSIPGAEAPESSKCSTVSPVSGINTRRSSGATGNSCSPLNATSGSGRFTPLNPRAKIEKQNEEGWFALSTHVS
B2: LMNB1 (protein, UniProt P20700 2-583, looked up)
Lamin-B1: ATATPVPPRMGSRAGGPTTPLSPTRLSRLQEKEELRELNDRLAVYIDKVRSLETENSALQLQVTEREEVRGRELTGLKALYETELADARRALDDTARERAKLQIELGKCKAEHDQLLLNYAKKESDLNGAQIKLREYEAALNSKDAALATALGDKKSLEGDLEDLKDQIAQLEASLAAAKKQLADETLLKVDLENRCQSLTEDLEFRKSMYEEEINETRRKHETRLVEVDSGRQIEYEYKLAQALHEMREQHDAQVRLYKEELEQTYHAKLENARLSSEMNTSTVNSAREELMESRMRIESLSSQLSNLQKESRACLERIQELEDLLAKEKDNSRRMLTDKEREMAEIRDQMQQQLNDYEQLLDVKLALDMEISAYRKLLEGEEERLKLSPSPSSRVTVSRASSSRSVRTTRGKRKRVDVEESEASSSVSISHSASATGNVCIEEIDVDGKFIRLKNTSEQDQPMGGWEMIRKIGDTSVSYKYTSRYVLKAGQTVTIWAANAGVTASPPTDLIWKNQNSWGTGEDVKVILKNSQGEEVAQRSTVFKTTIPEEEEEEEEAAGVVVEEELFHQQGTPRASNRSC
B3: CBY1 (protein, UniProt Q9Y3M2 1-126, looked up)
Protein chibby homolog 1: MPFFGNTFSPKKTPPRKSASLSNLHSLDRSTREVELGLEYGSPTMNLAGQSLKFENGQWIAETGVSGGVDRREVQRLRRRNQQLEEENNLLRLKVDILLDMLSESTAESHLMEKELDELRISRKRK

Key:
[1] = molecular target: T1, HCV ORFs (Gal4-DB fusions) (Hepatitis C virus genotype 1b, UniProt Q9WMX2); type: binding, HCV genotype 1b, isolate con1; conditions: human protein as prey
T1 construct: expressed in transfected cells; host or cells: Saccharomyces cerevisiae MAV203 (IMAP1) / AH109 (IMAP2)

[2] = tested on: HCV ORFs (Gal4-DB fusions); type: binding, HCV genotype 1b, isolate con1; conditions: human protein listed by gene symbol; the value names the HCV protein it interacts with
HCV proteins = molecular target: T2, HCV proteins (Hepatitis C virus genotype 1b, UniProt Q9WMX2); test: Validation by Y2H pairwise matrices; type: binding;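 note: yeast two-hybrid pairwise tests of interactions first found in Y2H screens of HCV bait proteins against human cDNA libraries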
T2 construct: expressed in transfected cells

[3] = validation of interaction with HCV protein NS3
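Throughout, for IMAP Y2H IMAP1 (number of IST): yeast two-hybrid screens using HCV genotype 1b proteins fused to Gal4-DB as baits against prey cDNA libraries from human spleen and foetal brain, IMAP1 via transformation and IMAP2 via mating.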
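Throughout, for Interaction with viral protein: yeast two-hybrid screens using HCV genotype 1b proteins fused to Gal4-DB as baits against prey cDNA libraries from human spleen and foetal brain, IMAP1 via transformation and IMAP2 via mating.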

Molecule | IMAP Y2H IMAP1 (number of IST) ([1]; HCV protein NS3 as bait) | Interaction with viral protein [2] | Y2H matrices (HCV proteins; [3]) | IMAP Y2H IMAP1 (number of IST) ([1]; HCV protein p7 as bait) | Y2H matrices (HCV proteins; interaction with HCV protein p7)
B1 | 1 | NS3 | + |  | 
B2 |  |  |  | 1 | +
B3 | 2 | NS3 | + |  | 
